Tested on: platelets
Experiment: Platelet aggregation
Assay type: cell-based, human

B1: ApoD: plasma lipocalin constituent of HDL, recombinant 6xHis, expressed in HEK293 cells (protein, UniProt P05090 21-189, looked up)
Apolipoprotein D: QAFHLGKCPNPPVQENFDVNKYLGRWYEIEKIPTTFENGRCIQANYSLMENGKIKVLNQELRADGTVNQIEGEATPVNLTEPAKLEVKFSWFMPSAPYWILATDYENYALVYSCTCIIQLFHVDFAWILARNPNLPPETVDSLKNILTSNNIDVKKMTVTDQVNCPKLS
modifications: 6xHis tag
did not inhibit: Inhibition of AA-induced platelet aggregation (low doses of AA, ApoD expressed in HEK293 cells) | Inhibition of U46619-induced platelet aggregation (low doses of U46619, ApoD expressed in HEK293 cells) | Inhibition of collagen-induced platelet aggregation (low doses of collagen, ApoD expressed in HEK293 cells)

Reference: paper PMC3408606 (Thrombosis and haemostasis, 2011)
